Data: the supplement of paper PMC10065799, “High-throughput profiling of sequence recognition by tyrosine kinases and SH2 domains using bacterial peptide display” (eLife, 2023)

How the values were obtained:
[1] = test system: AncSZ; experiment: phosphorylation enrichment, bacterial display (enrichment ratio); higher = better substrate or ligand; peptides without Tyr show the background
[2] = test system: c-Src; experiment: as above
[3] = target: MERTK (UniProt Q12866); experiment: as above
[4] = target: EPHB2 (UniProt P29323); experiment: as above
Chain of EPHB2 (P29323 whole entry, looked up): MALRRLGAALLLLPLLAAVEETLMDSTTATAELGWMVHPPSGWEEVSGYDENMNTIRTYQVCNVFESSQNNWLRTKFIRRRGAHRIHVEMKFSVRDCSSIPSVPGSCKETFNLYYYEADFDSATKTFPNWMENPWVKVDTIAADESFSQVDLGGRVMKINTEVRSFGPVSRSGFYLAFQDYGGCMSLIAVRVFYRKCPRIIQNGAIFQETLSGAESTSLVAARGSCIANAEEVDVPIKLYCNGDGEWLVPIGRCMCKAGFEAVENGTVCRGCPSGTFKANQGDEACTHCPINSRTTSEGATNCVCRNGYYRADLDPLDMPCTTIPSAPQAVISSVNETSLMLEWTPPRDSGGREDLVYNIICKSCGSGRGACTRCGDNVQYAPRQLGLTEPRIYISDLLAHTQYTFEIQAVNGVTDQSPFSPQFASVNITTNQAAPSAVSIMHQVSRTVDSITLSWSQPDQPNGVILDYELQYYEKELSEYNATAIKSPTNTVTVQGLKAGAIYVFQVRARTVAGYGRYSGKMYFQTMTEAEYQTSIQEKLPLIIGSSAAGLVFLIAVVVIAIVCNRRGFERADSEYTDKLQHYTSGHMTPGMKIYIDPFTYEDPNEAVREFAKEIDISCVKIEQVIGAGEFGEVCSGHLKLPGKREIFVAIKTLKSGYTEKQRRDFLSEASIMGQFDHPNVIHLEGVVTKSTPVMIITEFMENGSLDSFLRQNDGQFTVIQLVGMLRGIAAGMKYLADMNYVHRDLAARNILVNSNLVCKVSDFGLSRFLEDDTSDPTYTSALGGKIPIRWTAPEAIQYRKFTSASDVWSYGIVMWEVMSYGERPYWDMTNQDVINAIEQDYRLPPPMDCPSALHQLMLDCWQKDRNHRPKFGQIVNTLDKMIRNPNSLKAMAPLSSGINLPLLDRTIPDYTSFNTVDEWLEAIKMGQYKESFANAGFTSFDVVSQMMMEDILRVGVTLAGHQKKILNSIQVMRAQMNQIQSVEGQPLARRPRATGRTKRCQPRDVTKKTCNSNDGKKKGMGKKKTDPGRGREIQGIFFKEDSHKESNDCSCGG

[5] = target: Hck (UniProt P08631); experiment: as above
Chain of Hck (P08631 whole entry, looked up): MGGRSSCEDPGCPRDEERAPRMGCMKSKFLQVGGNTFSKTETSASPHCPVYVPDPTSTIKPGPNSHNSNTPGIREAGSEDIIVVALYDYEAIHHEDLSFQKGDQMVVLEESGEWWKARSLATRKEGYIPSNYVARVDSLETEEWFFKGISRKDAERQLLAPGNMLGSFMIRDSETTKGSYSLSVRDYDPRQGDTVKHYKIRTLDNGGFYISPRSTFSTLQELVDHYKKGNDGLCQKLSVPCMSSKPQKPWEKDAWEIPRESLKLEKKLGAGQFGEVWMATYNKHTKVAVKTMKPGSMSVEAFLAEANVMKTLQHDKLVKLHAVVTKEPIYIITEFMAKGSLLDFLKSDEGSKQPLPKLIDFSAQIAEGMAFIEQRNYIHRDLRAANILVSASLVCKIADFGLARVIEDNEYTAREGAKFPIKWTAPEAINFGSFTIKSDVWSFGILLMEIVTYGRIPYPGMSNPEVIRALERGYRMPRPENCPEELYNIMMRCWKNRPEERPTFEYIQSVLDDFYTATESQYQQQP

[6] = target: FGFR3 (UniProt P22607); experiment: as above
Chain of FGFR3 (P22607 whole entry, looked up): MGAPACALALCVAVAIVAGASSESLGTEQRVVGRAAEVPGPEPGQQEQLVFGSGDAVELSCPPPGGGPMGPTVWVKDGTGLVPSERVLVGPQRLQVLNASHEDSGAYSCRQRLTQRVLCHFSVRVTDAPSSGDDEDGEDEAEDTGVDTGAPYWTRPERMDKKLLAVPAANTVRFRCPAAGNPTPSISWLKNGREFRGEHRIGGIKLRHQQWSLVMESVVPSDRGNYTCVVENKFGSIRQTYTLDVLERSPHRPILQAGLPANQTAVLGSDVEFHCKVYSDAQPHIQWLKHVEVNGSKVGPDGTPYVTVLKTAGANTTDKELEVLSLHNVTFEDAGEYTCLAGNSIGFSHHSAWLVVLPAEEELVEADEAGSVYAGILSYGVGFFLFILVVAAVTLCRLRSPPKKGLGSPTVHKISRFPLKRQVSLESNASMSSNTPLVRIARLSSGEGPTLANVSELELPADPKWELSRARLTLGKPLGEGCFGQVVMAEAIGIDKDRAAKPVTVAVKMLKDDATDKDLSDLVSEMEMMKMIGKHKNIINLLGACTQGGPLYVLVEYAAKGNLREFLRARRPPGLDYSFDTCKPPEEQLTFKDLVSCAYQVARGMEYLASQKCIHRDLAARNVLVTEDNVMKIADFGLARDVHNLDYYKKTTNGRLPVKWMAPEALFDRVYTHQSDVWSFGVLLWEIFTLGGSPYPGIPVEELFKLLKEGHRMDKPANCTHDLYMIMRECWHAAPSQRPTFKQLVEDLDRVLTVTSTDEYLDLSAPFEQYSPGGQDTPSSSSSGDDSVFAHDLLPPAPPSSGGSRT

[7] = target: Fes (UniProt P07332); experiment: as above
Chain of Fes (P07332 whole entry, looked up): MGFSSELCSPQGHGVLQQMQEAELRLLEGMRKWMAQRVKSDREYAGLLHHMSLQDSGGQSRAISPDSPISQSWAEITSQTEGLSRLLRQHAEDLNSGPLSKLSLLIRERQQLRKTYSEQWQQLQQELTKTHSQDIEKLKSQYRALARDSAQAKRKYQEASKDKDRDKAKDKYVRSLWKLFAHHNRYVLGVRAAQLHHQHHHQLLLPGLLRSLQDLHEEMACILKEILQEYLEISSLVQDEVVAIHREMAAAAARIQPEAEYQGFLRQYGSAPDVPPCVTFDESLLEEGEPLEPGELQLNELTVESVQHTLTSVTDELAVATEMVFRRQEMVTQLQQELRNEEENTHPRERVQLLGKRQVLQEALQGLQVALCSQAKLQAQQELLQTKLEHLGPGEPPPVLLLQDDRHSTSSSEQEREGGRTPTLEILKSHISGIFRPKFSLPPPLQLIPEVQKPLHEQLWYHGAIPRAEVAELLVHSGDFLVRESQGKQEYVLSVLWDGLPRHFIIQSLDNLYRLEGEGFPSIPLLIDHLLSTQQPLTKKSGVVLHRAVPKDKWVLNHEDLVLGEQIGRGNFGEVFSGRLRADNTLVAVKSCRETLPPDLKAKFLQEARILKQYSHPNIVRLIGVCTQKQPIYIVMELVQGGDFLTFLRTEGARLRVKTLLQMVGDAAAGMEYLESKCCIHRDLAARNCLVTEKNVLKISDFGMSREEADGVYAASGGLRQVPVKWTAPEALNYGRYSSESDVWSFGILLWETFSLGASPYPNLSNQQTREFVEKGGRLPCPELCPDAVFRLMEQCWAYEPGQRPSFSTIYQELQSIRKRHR

[8] = test system: c-Abl (mouse); experiment: as above
[9] = target: Jak2 (UniProt O60674); experiment: as above
[10] = target: Fyn (UniProt P06241); experiment: as above
[11] = target: FGFR1 (UniProt P11362); experiment: as above
Chain of FGFR1 (P11362 whole entry, looked up): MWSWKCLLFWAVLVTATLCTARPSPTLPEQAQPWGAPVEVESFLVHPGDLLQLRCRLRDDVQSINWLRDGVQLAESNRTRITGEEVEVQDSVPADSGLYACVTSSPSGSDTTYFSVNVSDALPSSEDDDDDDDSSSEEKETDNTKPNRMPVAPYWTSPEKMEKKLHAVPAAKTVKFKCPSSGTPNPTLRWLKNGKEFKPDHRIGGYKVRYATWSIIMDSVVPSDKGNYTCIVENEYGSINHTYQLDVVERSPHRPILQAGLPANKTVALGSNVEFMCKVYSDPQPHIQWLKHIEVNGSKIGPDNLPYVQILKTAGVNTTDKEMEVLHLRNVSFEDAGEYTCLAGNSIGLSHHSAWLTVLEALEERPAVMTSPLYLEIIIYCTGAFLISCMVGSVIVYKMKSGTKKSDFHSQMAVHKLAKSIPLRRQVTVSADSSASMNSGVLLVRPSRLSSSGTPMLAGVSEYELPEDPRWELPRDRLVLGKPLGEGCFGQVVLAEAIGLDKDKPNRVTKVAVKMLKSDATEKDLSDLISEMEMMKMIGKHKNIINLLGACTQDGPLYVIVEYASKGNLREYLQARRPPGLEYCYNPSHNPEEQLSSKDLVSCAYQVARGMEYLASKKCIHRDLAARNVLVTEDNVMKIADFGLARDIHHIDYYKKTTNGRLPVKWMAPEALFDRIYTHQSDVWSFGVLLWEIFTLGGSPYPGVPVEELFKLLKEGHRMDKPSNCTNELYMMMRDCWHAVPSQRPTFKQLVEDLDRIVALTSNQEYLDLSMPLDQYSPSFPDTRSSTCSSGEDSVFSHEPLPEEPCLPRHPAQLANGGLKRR

[12] = test system: Fer (mouse); experiment: as above
[13] = target: EPHB1 (UniProt P54762); experiment: as above
Chain of EPHB1 (P54762 whole entry, looked up): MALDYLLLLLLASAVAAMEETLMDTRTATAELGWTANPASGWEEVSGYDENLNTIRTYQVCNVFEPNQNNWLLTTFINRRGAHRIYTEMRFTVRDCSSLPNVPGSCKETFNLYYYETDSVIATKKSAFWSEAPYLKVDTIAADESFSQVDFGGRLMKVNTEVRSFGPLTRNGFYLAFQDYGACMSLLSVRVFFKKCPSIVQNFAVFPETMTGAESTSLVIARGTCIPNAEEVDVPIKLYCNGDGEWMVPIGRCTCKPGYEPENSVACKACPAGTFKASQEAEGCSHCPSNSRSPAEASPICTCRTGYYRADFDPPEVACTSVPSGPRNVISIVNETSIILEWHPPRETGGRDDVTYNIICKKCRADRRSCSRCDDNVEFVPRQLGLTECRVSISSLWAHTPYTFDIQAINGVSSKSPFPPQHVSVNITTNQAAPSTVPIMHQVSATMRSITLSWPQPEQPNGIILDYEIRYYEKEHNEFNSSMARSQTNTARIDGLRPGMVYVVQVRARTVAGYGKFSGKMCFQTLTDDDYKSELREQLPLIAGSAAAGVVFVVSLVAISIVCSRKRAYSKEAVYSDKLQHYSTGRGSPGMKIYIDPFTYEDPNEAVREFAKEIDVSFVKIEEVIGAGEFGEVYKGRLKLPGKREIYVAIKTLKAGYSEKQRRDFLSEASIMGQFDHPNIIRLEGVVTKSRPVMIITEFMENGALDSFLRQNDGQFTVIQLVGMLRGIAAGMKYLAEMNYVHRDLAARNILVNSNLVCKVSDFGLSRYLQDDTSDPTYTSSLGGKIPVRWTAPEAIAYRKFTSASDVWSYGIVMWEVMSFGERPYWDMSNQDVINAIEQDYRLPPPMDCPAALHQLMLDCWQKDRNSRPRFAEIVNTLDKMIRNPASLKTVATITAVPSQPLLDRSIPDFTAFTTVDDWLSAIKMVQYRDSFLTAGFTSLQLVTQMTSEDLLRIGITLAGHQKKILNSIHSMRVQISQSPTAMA

[14] = target: SHP2-C SH2; experiment: SH2 binding enrichment of the phosphorylated peptide, bacterial display (enrichment ratio); higher = better substrate or ligand; peptides without Tyr show the background
[15] = target: c-Src SH2; experiment: as above
[16] = target: Grb2 SH2 (UniProt P62993); experiment: as above
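Wherever SH2 binding enrichment of the phosphorylated peptide, bacterial display is given: peptide library displayed on the E. coli surface as eCPX fusions, selected cells deep-sequenced, score is each peptide's frequency after selection divided by its frequency in the input.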
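Wherever phosphorylation enrichment, bacterial display is given: 11-residue human phosphosite peptides and single-mutation variants displayed on the E. coli surface, counted by deep sequencing, each peptide's frequency after selection divided by its frequency in the unselected input library; frequency after pTyr selection over input frequency; kinase dosed for 20-30% of maximal phosphorylation in three min.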

Sequence	phosphorylation enrichment [1]	phosphorylation enrichment [2]	phosphorylation enrichment [3]	phosphorylation enrichment [4]	phosphorylation enrichment [5]	phosphorylation enrichment [6]	phosphorylation enrichment [7]	phosphorylation enrichment [8]	phosphorylation enrichment [9]	phosphorylation enrichment [10]	phosphorylation enrichment [11]	phosphorylation enrichment [12]	phosphorylation enrichment [13]	SH2 binding enrichment [14]	SH2 binding enrichment [15]	SH2 binding enrichment [16]
KDHRDYKFQPR [SOX9_Y172_P170R_YF]	0.543	0.423	0.583	0.346	0.421	0.471	0.586	0.683	0.51	0.49	0.462	0.388	0.426	1.04	0.947	1.19
KDLPNYNWKSF [KISS1_Y112_N115K]	0.655	0.588	0.455	0.529	0.439	0.598	0.865	0.72	0.918	0.438	0.418	0.464	0.532	0.475	0.38	0.664
KDQGGYAMHQD [MAPT_Y29_T30A]	0.677	0.487	0.426	0.476	0.471	0.574	0.798	0.557	0.528	0.392	0.329	0.419	0.406	0.399	0.485	0.805
KDYETYQSFQN [CTNND2_Y1157_P1159S]	1.33	4.92	0.427	8.93	5.74	0.691	1.03	0.875	1.03	6.69	0.551	0.651	7.69	0.712	0.533	0.981
KEDSVYGSQSV [NFKB2_Y868_A867V]	0.829	1.35	0.399	0.41	0.984	0.557	0.946	0.608	0.794	1.43	0.353	0.498	0.449	0.554	0.389	1.03
KELAPYDENCF [RPS19_Y48_W52C]	1.32	0.612	0.487	0.696	0.57	0.902	1.48	0.997	1.31	0.583	0.573	0.632	0.628	0.803	1.32	1.24
KERNQYGGVMV [MMP21_Y347_E349G]	0.534	0.507	0.394	0.394	0.474	0.475	0.594	0.44	0.425	0.556	0.418	0.474	0.361	0.854	0.525	0.74
KFEDVYVGICL [B3GALNT1_Y269]	1.37	2.92	0.592	0.715	1.99	1.24	1.33	1.02	1.16	3.06	1.23	2.52	0.857	0.41	0.458	0.647
KFMVGYEMLAQ [GALT_Y339]	0.88	0.382	0.343	0.504	0.526	0.697	0.897	0.622	0.833	0.417	0.553	0.511	0.519	0.892	3.23	1.33
KFVVVYFRETD [IL17RB_Y447_I451T_YF]	1.36	0.377	0.417	0.597	0.57	0.734	1.23	0.734	1.11	0.463	0.512	0.484	0.637	1.55	1.33	2.19
KGEDFYCVTRH [FHL1_Y149_C153R]	1.22	0.794	0.82	0.558	0.808	0.715	1.2	0.835	1	0.633	0.498	0.662	0.592	0.694	0.357	0.766
KGELRYMHSRV [ABCD1_Y281]	0.568	0.48	0.378	0.348	0.377	0.44	0.746	0.517	0.618	0.303	0.428	0.375	0.396	1.33	1.27	1.38
KGFRGYSFDDI [TMEM230_Y110_YF]	0.824	0.452	0.375	0.541	0.412	0.501	0.798	0.551	0.835	0.402	0.41	0.409	0.495	0.678	0.453	0.863
KGKLIYLLRDS [NXPE1_Y350_G353R]	0.719	0.516	0.443	0.447	0.599	0.599	0.964	0.666	0.692	0.49	0.428	0.492	0.455	3.18	1.75	2.45
KHCEDYVCSYN [DSC1_Y846]	1.14	1.36	0.398	0.578	0.555	0.662	1.23	0.771	0.93	0.502	0.627	0.506	0.63	0.874	1.05	0.913
KIIRRYVSSEG [ANK2_Y3907]	0.509	0.458	0.351	0.358	0.371	0.34	0.479	0.416	0.531	0.41	0.384	0.365	0.321	0.533	0.421	0.637
KILTHYKQPHT [KMT2D_Y5349_R5351Q]	0.763	0.416	0.506	0.403	0.46	0.412	0.565	1.18	0.726	0.478	0.437	0.384	0.364	0.998	0.907	1.05

Sequence	phosphorylation enrichment [1]	phosphorylation enrichment [2]	phosphorylation enrichment [3]	phosphorylation enrichment [4]	phosphorylation enrichment [5]	phosphorylation enrichment [6]	phosphorylation enrichment [7]	phosphorylation enrichment [8]	phosphorylation enrichment [9]	phosphorylation enrichment [10]	phosphorylation enrichment [11]	phosphorylation enrichment [12]	phosphorylation enrichment [13]	SH2 binding enrichment [14]	SH2 binding enrichment [15]	SH2 binding enrichment [16]
KKCTRYIDCAL [ASPA_Y64_D68A]	0.684	0.371	0.338	0.394	0.356	0.568	0.755	0.55	0.595	0.336	0.394	0.418	0.374	0.806	0.709	0.836
KKHFSYAWPFF [BRDT_Y291_YF]	1.03	0.529	1.64	0.494	0.428	0.653	1.13	0.661	0.976	0.428	0.545	0.487	0.467	2.15	1.77	1.8
KKLHKYNTQFQ [PIK3R1_Y452_E451K]	0.577	0.416	0.487	0.46	0.425	1.13	0.909	1.06	1.55	0.355	0.496	0.503	0.511	1.67	1.24	1.42
KKRSVYLKVLF [CC2D2A_Y683]	1.01	0.391	0.361	0.543	0.401	0.721	1.19	0.706	0.897	0.446	0.494	0.478	0.453	0.983	0.679	0.869
KLKRSYCSPDI [USP8_Y717_S718C]	0.538	0.433	0.459	0.37	0.393	0.534	0.712	0.534	0.648	0.401	0.415	0.318	0.36	0.907	0.785	0.931
KLKRSYSSRDI [USP8_Y717_P720R]	0.45	0.458	0.432	0.409	0.327	0.368	0.464	0.51	0.51	0.329	0.289	0.371	0.351	0.651	0.531	1.13
KMGNEYVTKGQ [MYH7_Y410_V406M]	0.447	0.344	0.374	0.353	0.451	0.447	0.523	0.326	0.418	0.358	0.375	0.385	0.367	0.576	0.408	0.713
KMKGDYYCYLA [YWHAG_Y130_R132C]	2.32	1.78	6.74	4.35	1.58	9.02	1.24	1.57	3.93	1.38	11	0.895	4.58	0.836	0.837	0.743
KNILCYIQGGS [HYDIN_Y4610]	1.13	0.504	0.458	0.748	0.594	0.761	1.43	0.977	1.27	0.436	0.585	0.522	0.711	0.598	0.328	0.617
KNITEYCRDLI [RECQL_Y492]	0.877	0.42	0.397	0.606	0.471	0.691	1.05	0.66	0.791	0.477	0.476	0.502	0.544	0.762	0.68	0.99
KNKELYSDPFD [PDE10A_Y300_L303P]	0.877	0.629	0.786	1.37	0.824	0.935	0.886	0.592	0.763	0.443	0.706	0.983	0.878	0.805	0.672	0.623
KPGVNYYFRVS	1.15	0.385	0.392	0.739	0.423	0.7	1.37	0.732	1.16	0.368	0.623	0.483	0.534	0.977	0.624	0.755
KPLMPYMRYSR [SMARCE1_Y73]	0.787	0.52	0.467	0.449	0.435	0.431	0.761	0.635	0.626	0.432	0.449	0.384	0.353	0.609	0.402	0.78
KPMDTYFDSTR [DYNC2H1_Y2230_YF]	0.79	0.512	0.489	0.517	0.484	0.651	0.804	0.615	0.758	0.452	0.778	0.526	0.666	0.696	0.472	0.86
KPPFSYNALIM [FOXG1_Y186]	0.641	0.512	0.525	0.488	0.472	0.628	0.724	0.57	0.632	0.438	0.455	0.461	0.424	0.497	0.403	0.726
KPSLKYVTYGN [GALNTL5_Y404_G401S]	0.577	0.387	0.348	0.349	0.462	0.516	0.65	0.408	0.443	0.379	0.4	0.417	0.334	0.985	0.836	1.09
